Reference: US20180334496A1 (KODIAK SCIENCES, published 2018)

How the values were obtained:
Test in all cases: SPR MX96
[1] = biological target: T1, recombinant human CFD, His-tagged (human, UniProt P00746 26-253)
T1 construct: also called rhCFD-His

[2] = biological target: T2, recombinant human CFD mutant 1 (R157A, R207A), His-tagged (human, UniProt P00746 26-253)
T2 construct: positions are linear positions in the mature protein; also called rhCFD-mut1-His; Mut1

[3] = biological target: T3, recombinant cynomolgus CFD, His-tagged (cynomolgus)
T3 construct: also called rcyCFD-His; recombinant Cyno-CFD

[4] = biological target: T4, human complement factor D purified from serum (human, UniProt P00746 26-253)
T4 construct: serum-purified (CompTech); also called hCFD-Comptech; CFD
T4 sequence (P00746 26-253): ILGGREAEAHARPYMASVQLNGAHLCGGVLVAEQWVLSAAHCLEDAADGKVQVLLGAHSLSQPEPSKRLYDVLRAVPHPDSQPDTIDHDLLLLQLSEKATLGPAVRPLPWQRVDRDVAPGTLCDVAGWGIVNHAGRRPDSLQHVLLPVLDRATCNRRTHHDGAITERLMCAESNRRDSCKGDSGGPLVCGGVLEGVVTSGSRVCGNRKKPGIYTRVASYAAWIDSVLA

T1 sequence (P00746 26-253 limits assumed): as the sequence (P00746 26-253) above
T2 sequence (P00746 26-253 R182A/R232A limits assumed): as the sequence (P00746 26-253) above, with R157A, R207A counted along it

Binder	Kd [1]	Kd [2]	Kd [3]	Kd [4]
KCD022 (antibody, V domains shown) VH: DVQLQESGPDLVKPSQSLSLTCTVTGYSITSGYSWHWIRQFPGNTLEWMGYIHYSGSTNYNPSLESRISFTRDTSKNQFFLQLNSVTTEDTATYYCALHFYGYNLGWYFDVWGAGTTVTVSS VL: DIVMTQSHKFMSTSIGDRVIITCKASQDVGTTVAWYQQRPGQSPKLLIYWASTRHTAVPDRFTGSGSGTDFTLTISNVQSEDLADYFCQQYTSYPLTFGAGTQLELK	83 nM	110 nM	54 nM	57 nM
KCD017 (antibody, V domains shown) VH: DVQLQESGPDLVKPSQSLSLTCTVTDYSITSGYSWHWIRQFPGNKLEWLGYIHSSGNTNYNPSLKSRFSITRDTSKNQFFLQLNSVTSEDTATYYCALHYYGSSFGWYFDVWGAGTTVTVSS VL: DIVMTQSHKFMSTSVGDRVYITCKASQDVGTAVAWYQQTSGQSPKLLIYWASTRHTGVPDRFTGSGSGTDFTLTLSNVQSEDLADYFCQQYTSYPLTFGAGTKLELK	13 nM	10 nM	11 nM	7.8 nM
KCD137 (antibody, V domains shown) VH: EVQLVESGGDLVKPGGSLKLSCAASGFTFSGYGMSWVRQIPDKRLEWVAISSRDNSFTYYPDSVKGRFTISRDNAKNTLYLQMSSLKSEDTALYFCTRHPYLPTGGYVMDYWGQGTSVTVSS VL: DIVMTQSHKFMSTSVGDRVSITCKASQDVGTAVAWYQQRPGQSPKLLIYWASTRHTGVPDRFTGSGSGTDFTLTVSNVQSEDLADYFCQQYTSYPLTFGAGTKLELK	5.5 nM	4.6 nM	5.9 nM	0.5 nM
KCD013 (antibody, V domains shown) VH: EVQLQQSGAELVKPGASVKLSCTASGFKIKDTYMHWVKERPDQGLEWIGRIDPANGNTKYDPKFQGKATITADTSSNTAYLQLSSLTSEDTAVYYCANAMDYWGQGTSVTVSS VL: QIILTQSPAIMSASPGEKVTMTCSASSSVSNMYWYQQKPGSSPRLLIYDTSNLASGVPVRFSGSGSGASYSLTISRMEAEDAATYYCQQWSSYPWTFGGGTKLEIK	11 nM	19 nM	93 nM	7.3 nM
KCD015 (antibody, V domains shown) VH: EVQLQQSGAELVKPGASVKLSCTASGFNIKDTYMHWVKQRPEQGLEWIGRIDPANGYTEYDPKFQGKATITADTSSNTAYLQLSSLTSEDSAAYYCTSAMEFWGQGTSVTVSS VL: QIVLTQSPAILSASPGEKVTMTCSASSSVSYIYWYQQKPRSSPRLLIYDTSNLASGVPVRFSGSGSGTSYSLTISRMEAEDAATYYCQQWSSYPFTFGGGTKLEVK	4.5 nM	3.7 nM	250 nM	6.2 nM
KCD128 (antibody, V domains shown) VH: QVQLQQPGAELVRPESSVKLSCKASGYTFTSYWMDWVMQRPGQGLEWIGNIYPSGSETHYNQKFKDKATLTVDKSSTTAYMQLSSLTFEDSAVYYCARSGFIGSRYLYYFDYWGQGTTLTVSS VL: DIVMTQSHKFMSTSVGDRVTITCKASQDVSNAVAWYQLKPGQSPKLLIYSASYRYTGVPDRFTGSGSGTDFTFTISSVQAADLAVYYCQQHYITPYTFGGGTKLEIK	14 nM	13 nM	3.3 nM	14 nM
KCD033 (antibody, V domains shown) VH: EVQLQQSGPELVKPGASMKISCTASGYSFTGYTMTWVKQSHGKNLEWIGLINPYNGGTNYNQKFKGKATLTVDKSSSIAYMELLSLTSEDSAVYYCARRHYGSNWDYWGQGTTLTVSS VL: DIKLTQSPSSIYTSLGERVTITCKASQDINTYLSWFQQRPGKSPKTLIYRADRLVDGVPSRVRGSGSGQDYSLTISSLEYEDMGIYYCLQYDEFPYTFGGGTKLEIK	19 nM	28 nM	93 nM	11 nM
KCD036 (antibody, V domains shown, chimeric) VH: EVQLQQSGPELVKPGASMKISCKASGYSFTGYTMTWVKQSHGKNLEWIGLINPYNGGTNYNQKFKGKATFTVDKSSSTAYMELLSLTSEDSAVYYCARRHYGSSWDYWGQGTTLTVSS VL: DIKLTQSPSSMYASLGERVTITCKASQDINTYLSWFQQKPGKSPKTLIYRANRLVDGVPSRFSGSGSGQDYSLTISSLEYEEMGIYYCLQYDEFPYTFGGGTKLEIK	29 nM	80 nM	64 nM	26 nM
KCD062 (antibody, V domains shown) VH: EVKLVESGGGLVQPGGSLKLSCAASGFTFSTYIMSWVRQTPEKRLEWVAYITSGGSSTYYPDTVKGRFTISRDNAKSTLYLQMSSLKSEDTAMYYCARHAHFYAMDYWGQGTSVTVSS VL: DIQMTQSPSSLSASLGGKVTITCKASQDINKYIAWYQHKPGKGPRLLIHYTSTLQPGIPSRFSGSGSGRDYSFSISNLEPEDIATYYCLQYDNLLYTFGGGTKLEIK	32 nM	62 nM	19 nM	24 nM
KCD064 (antibody, V domains shown) VH: EVKLVESGGGLVQPGGSLKLSCAASGFTFSSYIMSWVRQTPEKRLGWVAYITSGGGSTYYPDTVKGRFTISRDNAKNTLYLQMSSLKSEDTAMYYCARHGTGYAMDYWGQGTSVTVSS VL: DIQMTQSPSSLSASLGGKVTITCKASQDINKYIAWYQHKPGKGPRLLIHYTSTLQPGIPSRFSGSGSGRDYSFSISNLEPEDIATYYCLQYDNLLYTFGGGTELEIK	20 nM	37 nM	15 nM	20 nM
KCD230 (antibody, V domains shown) VH: QVQLQQPGTELVKPGASVKLPCKASGYTFTSYWMQWVKQRPGQGLEWIGEIDPSDTYINYNQKFKGKATLTVDTSSTTAYMQLSSLTSEDSAVYYCARYTTIMASDYWGQGTTLTVSS VL: DIQMTQTTSSLSVSLGDRVTISCRASQDITNYLNWYQQKPDGTVKLLIYFTSRLHSGVPSRFSGSGSGTDYSLTISNLEPEDIATYYCQQYSKLPWTFGGGTKLEIK	1.6 nM	0.88 nM	2.7 nM	2.5 nM
KCD139 (antibody, V domains shown) VH: EVQLQQSGAELVRPGSSVKMSCKTSGYTFTSYGINWVKQRPGQGLEWIGYIYIANGYTENNEKFKGKAKLTSDISSSTAYMQLSSLTSEDSAIYFCARRFDYAGALDYWGQGTSVTVSS VL: DIVLTQSPASLAVSLGQRATISCRASESVDSYGNSFMHWYQQKPGQPPKLLIHRASNLESGIPARFSGSGSRTDFTLTINPVEADDVAIYYCQQTNDDPYTFGGGTNLEIK	3.3 nM	3.5 nM	3.8 nM	5.3 nM
KCD075 (antibody, V domains shown) VH: QVQLLQPGAELVRPGTSVKLSCKASGYTFSNYWINWVKQRPGQGLEWIGNIYPSDSSINYNQKFKDKATLTVDKSSTTAYMQLSSPTSEDSAVYYCTGTDWYFDVWGAGTTVTVSS VL: DIQMTQTTSSLSASLGDRVTISCSGGQGISNYLNWYQQKPDGTFKLLIYYTSTLHSGVPSRFSGSGSGTDYSLTISNLEPEDVATYYCQQYSKLPYTFGGGTKLEIK	2.5 nM	3.4 nM	3.2 nM	3.7 nM
KCD001 (antibody, V domains shown) VH: EVQLQQSGPELVKPGASVKISCKASDNSFTGYYMHWVKQSHGNILDWIGYIDPYNGVSSYNQKFKGKATLTVDKSSSTAYMEIRSLTSEDSAVYYCASYYGSSPYWYFDVWGTGTTVTVSS VL: QIVLSQSPAILSASPGEKVTMTCRASSSVSYMHWYQQKPGSSPKPWIYATSNLASGVPARFSGSGSGTSHFLTISRLEAEDAATYFCQQWSSNPYTFGGGTKLEIK	0.22 nM	0.19 nM	0.63 nM	0.22 nM
KCD110 (antibody, V domains shown) VH: EVQLQQSGPELVKPGASVKISCKASGYSFTGYYMHWVKQSHGNILDWIGYIDPDNGVSSKNQKFTGKATVTADKSSSTAYMELRSLTSEDSAVYYCAGYYGSSWYWYFDVWGTGTTVTVSS VL: QIVLSQSPAILSASPGEKVTMTCRASSSVSYMHWYQQKPGSSPKPWIYATSNLASGVPARFSGSGSGTSYSLTISRVEAEDAATYYCQQWSSNPYTFGGGTKLEIK	2 nM	4.1 nM	5.3 nM	3.7 nM
KCD225 (antibody, V domains shown) VH: QVQLQQSGPELVKPGASVKISCKASGYTFTDYYINWMKQRPGQGLEWIGWIFPGSDSTYYNEKFKGKATLTVDKSSSTAYMLLSSLTSEDSAVYFCARLGYYSHSYYAMDYWGQGTSVTVSS VL: DIQMTQSPASLSVSTGETVTITCRASENIYSNLAWFQQKQGKSPQLLVYAATNLADGVPSRFSGSGSGTQYSLKITSLQSEDFGSYYCQHFWGTPLTFGAGTKLDLK	5 nM	6.2 nM	46 nM	8.7 nM
KCD132 (antibody, V domains shown) VH: QVQLQQSGPELVKPGASVKISCKASGYSFTDYYINWVKQRPGQGLEWIGWIFPGSGSTYYNEKFKGKATLTVDKSSSTAYMLLSSLTSEDSAVYFCARTGYYSNLYAVDYWGQGTSVTVSS VL: DIQMTQSPASLSVSVGETVTITCRASENIYSNLAWYQQKQGKSPQLLVYVATNLADGVPSRFSGSGSGTQYSLKINSLQSEDFGNYYCQHFWGTPYTFGGGTKLEMR	1.6 nM	1.4 nM	8 nM	2.6 nM
KCD219 (antibody, V domains shown) VH: QVQLQQSGPELVKPGASVKISCKASGYTFTDYYINWVKQRPGQGLEWIGWIFPGSGSTYYNEKFKGKATLTVDKSSSTAYMLLSSLPSEDSAVYFCARYGYYGSSFYAMDYWGQGTSVTVSS VL: DIQMTQSPASLSVSVGETVTITCRASENIYSNLAWYQQKQGKSPQLLVYAATNLADGVPSRFSGSGSGTQYSLKINSLQSEDFGSYYCQHFWGSPPTFGGGTKLEIK	3 nM	3.6 nM	12 nM	4.3 nM
